Source: article PMC11879457 (Nucleic Acids Research, 2025)

T1: YdaT (Rac prophage) (Escherichia coli K-12 MG1655 (Rac …, UniProt P76064 1-140))
T1 sequence: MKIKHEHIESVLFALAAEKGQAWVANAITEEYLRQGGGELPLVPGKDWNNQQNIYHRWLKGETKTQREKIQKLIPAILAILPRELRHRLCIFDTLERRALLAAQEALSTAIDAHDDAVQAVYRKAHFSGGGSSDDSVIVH

T2: YdaTmut (H56A R57A) (Escherichia coli K-12 MG1655 (Rac …, UniProt P76064 1-140, H56A;R57A))
T2 sequence: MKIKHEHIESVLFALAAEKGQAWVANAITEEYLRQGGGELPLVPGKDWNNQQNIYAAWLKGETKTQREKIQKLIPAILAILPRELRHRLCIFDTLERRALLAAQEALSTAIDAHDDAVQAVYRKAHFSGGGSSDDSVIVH


Assays:
YdaT (Rac prophage) = molecular target: T1, YdaT (Rac prophage); test: DNase I footprinting
YdaTmut (H56A R57A) = molecular target: T2, YdaTmut (H56A R57A); test: DNase I footprinting
SEC = molecular target: the molecule itself; test: SEC
SDS-PAGE = molecular target: the molecule itself; test: SDS-PAGE

| Binder | binding result (YdaT (Rac prophage)) | binding result (YdaTmut (H56A R57A)) | stoichiometry N (SEC) | stoichiometry N (SDS-PAGE) |
| --- | --- | --- | --- | --- |
| IGR footprint substrate (165 bp) (dsDNA) DNA 1: GCGCATTACATTAGGCAATCCCTACCCTTACTGCATTAGGCACAGCCTATTGACAATTGCGTTAGGCGTCGCCTAATATTTCTGTGTGTTTTTGGAGTTCATTCGATGAAAAAAGAGAACTATTCATTCAAGCAAGCTTGTGCTGTTGTCGGTGGGCAATCAGCA DNA 2: TGCTGATTGCCCACCGACAACAGCACAAGCTTGCTTGAATGAATAGTTCTCTTTTTTCATCGAATGAACTCCAAAAACACACAGAAATATTAGGCGACGCCTAACGCAATTGTCAATAGGCTGTGCCTAATGCAGTAAGGGTAGGGATTGCCTAATGTAATGCGC | binds | no binding | – | – |
| N-terminally 6x His-tagged YdaT, wild type (Rac prophage transcription factor) (natural protein, E. coli K-12 (Rac prophage), UniProt P76064 1-140, looked up) MKIKHEHIESVLFALAAEKGQAWVANAITEEYLRQGGGELPLVPGKDWNNQQNIYHRWLKGETKTQREKIQKLIPAILAILPRELRHRLCIFDTLERRALLAAQEALSTAIDAHDDAVQAVYRKAHFSGGGSSDDSVIVH | – | – | 4 | 2 |
